Numbering of substitutions follows the chain as printed. Names may count otherwise.
B1: PR000067 (antibody, human IgG1, kappa, N297A, V domains shown)
VH: EVQLVESGGGLVQPGGSLRLSCAASGFTFSSYWMSWVRQAPGKGLEWVANIKQDGSEKYYVDSVKGRFTISRDNAKNSLYLQMNSLRAEDTAVYYCARDRAVAGAFDIWGQGTMVTVSS
VL: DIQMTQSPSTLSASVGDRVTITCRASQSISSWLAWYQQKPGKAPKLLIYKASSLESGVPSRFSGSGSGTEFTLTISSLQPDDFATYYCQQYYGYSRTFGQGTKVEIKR
notes: fully human recombinant antibody, human IgG1 heavy chain, kappa light chain (IGKV1-5); also called 73G3G9B11
B2: PR000064 (antibody, human IgG1, kappa, N297A, V domains shown)
VH: B1 VH
VL: DIQMTQSPSTLSTSVGDRVTITCRASQSISIWLAWYQQKPGKAPKLLIYKASSLESGVPSRFSGSGSGTEFTLTISSLQPDDFATYYCQQYYGYSRTFGQGTKVEIKR
notes: fully human recombinant antibody, human IgG1 heavy chain, kappa light chain (IGKV1-5); also called 63G11H3G9
B3: PR000066 (antibody, human IgG1, kappa, N297A, V domains shown)
VH: B1 VH with F106S, D107A, I108F
VL: B2 VL with T13A, D17H, K45D, S56T, S65N, Y94S
notes: fully human recombinant antibody, human IgG1 heavy chain, kappa light chain (IGKV1-5); also called 69B8G8C2
B4: PR000068 (antibody, human IgG1, kappa, N297A, V domains shown)
VH: B1 VH with A101P, F106S
VL: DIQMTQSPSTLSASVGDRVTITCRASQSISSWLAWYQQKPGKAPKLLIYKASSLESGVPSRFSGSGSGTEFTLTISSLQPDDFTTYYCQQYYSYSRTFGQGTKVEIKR
notes: fully human recombinant antibody, human IgG1 heavy chain, kappa light chain (IGKV1-5); also called 82F8H7E1
B5: PR000069 (antibody, human IgG1, kappa, N297A, V domains shown)
VH: B1 VH with Y94F, D107A
VL: B2 VL with T13A, S30Y, K39H, Y87F, K107R
notes: fully human recombinant antibody, human IgG1 heavy chain, kappa light chain (IGKV1-5); also called 85C5E4G3
B6: PR000071 (antibody, human IgG1, kappa, N297A, V domains shown)
VH: B1 VH with L79Q, F106S
VL: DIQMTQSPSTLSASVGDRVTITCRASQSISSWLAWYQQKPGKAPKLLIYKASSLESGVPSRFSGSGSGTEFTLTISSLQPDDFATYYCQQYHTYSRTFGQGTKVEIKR
notes: fully human recombinant antibody, human IgG1 heavy chain, kappa light chain (IGKV1-5); also called 95C7C4A9
B7: PR000072 (antibody, human IgG1, kappa, N297A, V domains shown)
VH: B1 VH with V61G, D90E, F106S
VL: B2 VL with T13A, I31S, K45N, S56T
notes: fully human recombinant antibody, human IgG1 heavy chain, kappa light chain (IGKV1-5); also called 98E11H1C9
B8: PR000070 (antibody, human IgG1, kappa, N297A, V domains shown)
VH: B1 VH
VL: B2 VL with T13A, I21V, S30Y, K45N, S56T, Y94S
notes: fully human recombinant antibody, human IgG1 heavy chain, kappa light chain (IGKV1-5); also called 91G3H5H3
B9: PR000065 (antibody, human IgG1, kappa, N297A, V domains shown)
VH: B1 VH
VL: B2 VL with T13A, S30F, K45N, S56T, Y94S
notes: fully human recombinant antibody, human IgG1 heavy chain, kappa light chain (IGKV1-5); also called 67C1F7G6
B10: PR000267 (antibody, human IgG1, kappa, N297A, V domains shown)
VH: B1 VH with D54E, V61G, D90E, F106S
VL: B2 VL with T13A, I31S, K45N, S56T
notes: heavy chain human IgG1 (N297A)
B11: PR000268 (antibody, human IgG1, kappa, N297A, V domains shown)
VH: B1 VH with G55A, V61G, D90E, F106S
VL: B2 VL with T13A, I31S, K45N, S56T
notes: as for B10
B12: PR000265 (antibody, human IgG1, kappa, N297A)
heavy: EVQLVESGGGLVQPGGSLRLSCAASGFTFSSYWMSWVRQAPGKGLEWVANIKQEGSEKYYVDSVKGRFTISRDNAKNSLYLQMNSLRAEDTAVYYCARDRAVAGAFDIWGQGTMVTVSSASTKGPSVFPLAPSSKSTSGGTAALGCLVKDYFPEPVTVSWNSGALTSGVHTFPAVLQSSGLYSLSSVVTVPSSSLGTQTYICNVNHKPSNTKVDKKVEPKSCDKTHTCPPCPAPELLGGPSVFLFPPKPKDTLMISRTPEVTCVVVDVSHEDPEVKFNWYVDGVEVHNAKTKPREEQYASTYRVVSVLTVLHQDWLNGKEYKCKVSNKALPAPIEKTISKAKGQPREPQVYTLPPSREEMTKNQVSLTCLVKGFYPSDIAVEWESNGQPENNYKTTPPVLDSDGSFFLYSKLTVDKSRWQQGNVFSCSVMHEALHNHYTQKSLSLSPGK
light: DIQMTQSPSTLSASVGDRVTVTCRASQSIYIWLAWYQQKPGKAPNLLIYKASSLETGVPSRFSGSGSGTEFTLTISSLQPDDFATYYCQQYYGSSRTFGQGTKVEIKRTVAAPSVFIFPPSDEQLKSGTASVVCLLNNFYPREAKVQWKVDNALQSGNSQESVTEQDSKDSTYSLSSTLTLSKADYEKHKVYACEVTHQGLSSPVTKSFNRGEC
notes: as for B10
B13: PR000266 (antibody, human IgG1, kappa, N297A, V domains shown)
VH: B1 VH with G55A
VL: B2 VL with T13A, I21V, S30Y, K45N, S56T, Y94S
notes: as for B10
B14: PR000261 (antibody, human IgG1, kappa, N297A, V domains shown)
VH: B1 VH with D54E, F106S, D107A, I108F
VL: B2 VL with T13A, D17H, K45D, S56T, Y94S
notes: PTM variant of PR000066 (H:D54E); heavy chain human IgG1 (N297A)
B15: PR000262 (antibody, human IgG1, kappa, N297A, V domains shown)
VH: B1 VH with G55A, F106S, D107A, I108F
VL: B2 VL with T13A, D17H, K45D, S56T, Y94S
notes: PTM variant of PR000066 (H:G55A); heavy chain human IgG1 (N297A)
B16: PR000263 (antibody, human IgG1, kappa, N297A, V domains shown)
VH: B1 VH with D54E, Y94F, D107A
VL: B2 VL with T13A, S30Y, K39H, Y87F, K107R
notes: as for B10
B17: PR000264 (antibody, human IgG1, kappa, N297A, V domains shown)
VH: B1 VH with G55A, Y94F, D107A
VL: B2 VL with T13A, S30Y, K39H, Y87F, K107R
notes: as for B10

The binders below were run against T1, human PD-L1 on CHO-K1 cells (CHO-K1/hPD-L1, Nanjing Genscript, M00543) (human, UniProt Q9NZQ7 19-290) (assay: flow cytometry on CHO-K1/hPD-L1 cells).
T1 construct: whole, on cells; also called CHO-K1 cells overexpressing human PD-L1; human PD-L1 on the cell surface
T1 sequence (Q9NZQ7 19-290, one chain of several): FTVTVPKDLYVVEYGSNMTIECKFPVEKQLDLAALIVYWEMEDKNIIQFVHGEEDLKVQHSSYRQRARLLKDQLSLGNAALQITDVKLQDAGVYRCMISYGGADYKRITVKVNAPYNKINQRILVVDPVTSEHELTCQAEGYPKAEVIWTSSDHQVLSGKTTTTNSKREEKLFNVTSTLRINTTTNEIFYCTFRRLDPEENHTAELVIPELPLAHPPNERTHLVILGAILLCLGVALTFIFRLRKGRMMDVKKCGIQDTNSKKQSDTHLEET

EC50	MFI maximum value	Binder
0.456 nM	7340 MFI	B1
0.417 nM	7880 MFI	B2
0.255 nM	7860 MFI	B3
0.326 nM	7640 MFI	B4
0.312 nM	7530 MFI	B5
0.521 nM	6890 MFI	B6
0.292 nM	7630 MFI	B7
0.21 nM	7790 MFI	B8
0.412 nM	7660 MFI	B9

Each binder was assayed against T1, human PD-L1 on CHO-K1 cells … (assay: flow cytometry competition: biotin-hPD-1 binding to CHO-K1/hPD-L1 cells).

IC50	Maximum inhibition rate (%)	Binder
1.04 nM	91%	B10
1.16 nM	91.3%	B11
0.604 nM	93.6%	B12
0.838 nM	91.5%	B13

Molecular target: T1, human PD-L1 on CHO-K1 cells …
Experiment: as above
Remark: another data set of the same source

IC50	Maximum inhibition rate (%)	Binder
0.894 nM	91.2%	B1
0.938 nM	91.5%	B2
0.539 nM	91.8%	B3
0.853 nM	91.4%	B4
0.836 nM	92.3%	B5
0.987 nM	91.6%	B6
0.746 nM	92.5%	B7
0.449 nM	90.7%	B8

The binders below were run against T2, human PD-L1 on Hep3B cells co-expressing human PD-L1 and OS8 (human, UniProt Q9NZQ7 19-290) (assay: cell-based or functional assay).
T2 sequence (Q9NZQ7 19-290): as the sequence (Q9NZQ7 19-290, one chain of several) above

EC50 (nM), PD-1 / NFAT-luciferase reporter	Maximum fluorescence value (RLU)	Binder
0.682 nM	79800 RLU	B1
0.533 nM	81600 RLU	B2
0.292 nM	85900 RLU	B3
0.603 nM	83300 RLU	B4
0.271 nM	83300 RLU	B5
2.71 nM	79700 RLU	B6
0.293 nM	78000 RLU	B7
0.269 nM	82700 RLU	B8

The binders below were run against T3, cynomolgus PD-L1 on CHO-K1 cells (CHO-K1/cynoPD-L1, Nanjing Genscript, M00573) (cynomolgus, UniProt G7PSE7 19-290) (assay: flow cytometry on CHO-K1/cynoPD-L1 cells).
T3 construct: also called CHO-K1 cells overexpressing cynomolgus PD-L1
T3 sequence (G7PSE7 entry or part of it limits assumed, one chain of several): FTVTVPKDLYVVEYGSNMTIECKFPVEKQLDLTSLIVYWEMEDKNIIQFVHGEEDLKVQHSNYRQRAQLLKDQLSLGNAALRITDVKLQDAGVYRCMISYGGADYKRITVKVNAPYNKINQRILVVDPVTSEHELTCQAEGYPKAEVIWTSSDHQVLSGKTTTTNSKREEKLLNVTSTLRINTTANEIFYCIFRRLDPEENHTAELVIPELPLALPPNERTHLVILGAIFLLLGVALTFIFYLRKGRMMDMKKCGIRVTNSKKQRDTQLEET

EC50	MFI maximum value	Binder
0.775 nM	22400 MFI	B10
0.759 nM	22200 MFI	B11
0.451 nM	22600 MFI	B12
0.562 nM	22400 MFI	B13

What follows are binders tested against T4, human PD-L1 protein with histidine tag (NovoProtein, C315) (human, UniProt Q9NZQ7 19-239, limits assumed, biotinylated with EZ-Link Sulfo-NHS-LC-Biotin in the epitope competition experiments (Examples 8 and 20); not biotinylated in the affinity experiments) (assay: BLI (Octet), antibody on AHC sensor, antigen 50~1.56 nM, 1:1 global fit).
T4 construct: bought reagent; also called biotinylated PD-L1 protein; not shown: histidine tag
T4 sequence (Q9NZQ7 19-239 limits assumed): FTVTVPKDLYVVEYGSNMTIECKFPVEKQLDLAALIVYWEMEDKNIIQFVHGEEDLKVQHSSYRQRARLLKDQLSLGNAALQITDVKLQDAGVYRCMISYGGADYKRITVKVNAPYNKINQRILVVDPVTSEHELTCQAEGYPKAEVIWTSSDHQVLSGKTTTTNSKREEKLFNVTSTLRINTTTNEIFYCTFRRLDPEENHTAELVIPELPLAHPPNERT

Kd	koff	kon	Binder
0.106 nM	7.09e-05 s⁻¹	669000 M⁻¹ s⁻¹	B12

The binders below were run against T4, human PD-L1 protein with histidine tag … (assay: BLI (Octet), antibody on AHC sensor, antigen 60 nM, 1:1 local fit).

Kd	koff	kon	Binder
0.409 nM	0.000106 s⁻¹	260000 M⁻¹ s⁻¹	B12
0.349 nM	9.62e-05 s⁻¹	276000 M⁻¹ s⁻¹	B13

These binders were tested against T5, Human PD-L1 (Acrobiosystems, EP-101-96tests, A001-214) (human, UniProt Q9NZQ7 19-238) (assay: competition ELISA: hPD-1-Biotin binding to coated hPD-L1).
T5 construct: bought reagent; also called human PD-L1 protein
T5 sequence (Q9NZQ7 19-238 limits assumed): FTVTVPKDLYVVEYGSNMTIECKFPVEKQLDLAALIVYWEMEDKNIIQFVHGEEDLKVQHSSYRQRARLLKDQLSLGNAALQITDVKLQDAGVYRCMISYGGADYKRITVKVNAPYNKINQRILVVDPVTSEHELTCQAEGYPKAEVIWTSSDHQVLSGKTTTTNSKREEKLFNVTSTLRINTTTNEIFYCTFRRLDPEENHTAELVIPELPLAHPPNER

IC50	Maximum inhibition rate (%)	Binder
0.333 nM	92.9%	B1
0.313 nM	91.1%	B2
0.35 nM	93%	B3
0.288 nM	91.6%	B4
0.313 nM	90.7%	B5
0.448 nM	89%	B6
0.237 nM	89.8%	B7
0.2 nM	90.6%	B8
0.432 nM	99%	B9

What follows are binders tested against T6, Human PD-L1-hFc protein (Acrobiosystems, PD1-H5258) (human, UniProt Q9NZQ7 19-238) (assay: competition ELISA: hB7-1-Biotin binding to coated hPD-L1-hFc).
T6 construct: bought reagent; not shown: human Fc (hFc)
T6 sequence (Q9NZQ7 19-238 limits assumed): as above

IC50	Maximum inhibition rate (%)	Binder
0.153 nM	36.9%	B1
0.284 nM	35.9%	B2
0.198 nM	47.2%	B3
0.199 nM	35%	B4
0.28 nM	33%	B5
0.351 nM	37.5%	B6
0.253 nM	47.6%	B7
0.305 nM	39.9%	B8
0.312 nM	43.8%	B9

What follows are binders tested against T7, Human PD-L1 (Acrobiosystems, PD1-H5229) (human, UniProt Q9NZQ7 19-238) (assay: ELISA, coated human PD-L1).
T7 construct: bought reagent; also called human PD-L1 protein
T7 sequence (Q9NZQ7 19-238 limits assumed): as above

EC50	Binder
0.0189 nM	B3
0.0637 nM	B5
0.0474 nM	B7
0.0641 nM	B8
0.0385 nM	B14
0.0338 nM	B15
0.0321 nM	B16
0.0343 nM	B17
0.0462 nM	B10
0.0412 nM	B11
0.0373 nM	B12
0.0415 nM	B13

Molecular target: T2, human PD-L1 on Hep3B cells …
Experiment: cell-based or functional assay
Remark: another data set of the same source

EC50 (nM), PD-1 / NFAT-luciferase reporter	Maximum fluorescence value (RLU)	Binder
0.796 nM	43000 RLU	B10
0.759 nM	45500 RLU	B11
0.533 nM	50700 RLU	B12
0.68 nM	48400 RLU	B13
